Assay results: patent US20230172982A1

Target: CD20, on SUP-B15 CD20+ cells (UniProt P11836)
Test: cell-based or functional assay

UniProt P11836, sequence (P11836 whole entry): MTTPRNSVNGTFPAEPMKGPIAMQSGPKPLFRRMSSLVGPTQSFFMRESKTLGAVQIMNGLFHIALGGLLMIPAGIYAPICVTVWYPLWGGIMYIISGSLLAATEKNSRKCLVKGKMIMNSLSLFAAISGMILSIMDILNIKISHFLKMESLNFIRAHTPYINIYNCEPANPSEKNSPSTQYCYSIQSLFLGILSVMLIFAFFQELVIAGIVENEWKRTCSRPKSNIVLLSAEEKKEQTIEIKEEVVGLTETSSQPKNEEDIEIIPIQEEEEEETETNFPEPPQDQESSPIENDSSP

ADCC by polyclonal BCMA.CAR t-haNK cells (quadracistronic): 60% | ADCC by polyclonal BCMA.CAR t-haNK cells (tricistronic): 55%
Substance: rituximab (antibody)
